Measured values from the supplement of paper PMC10201428.
± gives the standard deviation of the averaged measurements.

B1: library; a variant is named by its letters at N, in order (parent)
chain: ACATTTGTTGATACAACCATAAAATGATAATTACACCCATAAATTGATAATTATCACACCCANNNNNNNNNNNNNNCTCTGATCATAGTCAGACCAACATTGCTACGACCCGTATTCGCACCGACAC

Key:
[1] = variants of: B1; experiment: relative integration efficiency (T-RL orientation) vs wild-type transposon end (log2 (normalized fold change)); transposon end mutated: right end (5 bp flank + 75 bp right end); higher = more efficient transposition; details: with VchCAST RNA-guided transposition machinery (E. coli BL21(DE3) host, lacZ target)
Procedure: (§1)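 Pooled, barcoded VchCAST (Tn6677) mini-transposon donor libraries; each variable transposon-end sequence sits in a fixed pDonor mini-transposon context (10-bp barcode and cargo not included). Left- or right-end libraries were co-transformed with pEffector (TniQ-Cascade, TnsABC, lacZ crRNA, T7, 0.1 mM IPTG) into E. coli BL21(DE3) and grown 18 h at 37 C. T-LR and T-RL junction amplicons were sequenced; output/input barcode fold change was normalised to the mean of four wild-type barcodes and log2-transformed. Two biological replicates; zero-count/undetected variants carry floor values (-10 / -15), censored here. Barcode uncoupling by PCR recombination adds noise.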

[2] = variants of: B1; experiment: relative integration efficiency (T-LR orientation) vs wild-type transposon end (log2 (normalized fold change)); transposon end mutated: right end (5 bp flank + 75 bp right end); higher = more efficient transposition; details: with VchCAST RNA-guided transposition machinery (E. coli BL21(DE3) host, lacZ target)
Procedure: as §1

Variant | relative integration efficiency (log2) [1] | relative integration efficiency (log2) [2]
TAAATTGATAGGTA | -0.219 ± 0.01 | 1.09 ± 0.099
TAAATTGATATAGC | -0.0924 ± 0.038 | 0.0501 ± 0.056
TAAATTGATATTAC | -0.14 ± 0.1 | 0.0276 ± 0.11
TAAATTGATATTGC A23G | -0.0394 ± 0.13 | -0.227 ± 0.71
TAAATTGATATTGC A23C | 0.346 ± 0.047 | 0.198 ± 0.087
TATTTTGATATTGC | -0.123 ± 0.052 | 0.19 ± 0.27
TAAATTGTAATTGC | -0.121 ± 0.11 | 1.88 ± 0.1
TAAATTGATCTTGC | 0.011 ± 0.051 | 0.816 ± 0.13
ATTTAACTATAACG G10A | -0.62 ± 0.18 | 1.89 ± 0.087
ATTTAACTATAACG G10T | -1.54 ± 0.43 | 0.15 ± 0.026
TAAATTGATATTGC G26T | -0.472 ± 0.11 | -0.0416 ± 0.43
TAAATTGATAGTGC | -0.0439 ± 0.022 | 0.754 ± 0.013
TAAATTGATATTGC T54A | -0.338 ± 0.15 | 0.141 ± 0.18
TAAATTGATATTGC T54G | 0.0616 ± 0.064 | 0.247 ± 0.082
TAAATTGATATTGC T54C | -0.0952 ± 0.0069 | -0.015 ± 0.36
TATATTGATATTGC | 0.155 ± 0.039 | 0.337 ± 0.47
TAAATTGATATTGC A56T | -0.4 ± 0.052 | 0.0769 ± 0.005
TAAATTGATATTGC A56G | -0.248 ± 0.083 | 0.362 ± 0.33
TAAATTGATACTGC | -0.0852 ± 0.044 | 0.177 ± 0.018
TAAATTGATAGGGC | 0.0268 ± 0.029 | 1.18 ± 0.057

Variant | relative integration efficiency (log2) [1] | relative integration efficiency (log2) [2]
TAAATTGATATTGC A13G | 0.209 ± 0.06 | 0.173 ± 0.33
TAAATTGATATTGC A21T | 0.0476 ± 0.12 | -0.217 ± 0.052
TAAATAGATATTGC | -0.222 ± 0.0045 | 1.53 ± 0.13
ATTTAACTATAACG C14G | -0.937 ± 0.17 | 1.76 ± 0.15
ATTTAACTATAACG A56T | -0.909 ± 0.39 | 2.57 ± 0.2
ATTTAACTATAACG C61A | -0.657 ± 0.15 | 2.0647 ± 0.00092
TAAATTGATAAAGC | -0.251 ± 0.025 | 0.6224 ± 0.0024
TAAATTGATATTGC C2T | -0.0194 ± 0.017 | 0.0698 ± 0.22
TAAATTGATATTGC C2A | 0.0243 ± 0.04 | 0.336 ± 0.22
ATTTAACTATAACG C36A | -0.593 ± 0.052 | 2.4 ± 0.13
ATTTAACTATAACG C36G | -1.16 ± 0.22 | 1.95 ± 0.11
TAAATTGATATCGC | 0.0222 ± 0.012 | -0.0692 ± 0.048
TAAATTGATATTGC T80C | -0.0687 ± 0.062 | -0.0985 ± 0.41
TAAATTGATATTGC T80G | 0.183 ± 0.047 | 0.0082 ± 0.15
TAAATTGATATTGC T80A | 0.0921 ± 0.03 | 0.072 ± 0.48
ATTTAACTATAACG A21T | -0.978 ± 0.093 | 2 ± 0.062
TAAGTTGATATTGC | -0.0544 ± 0.061 | 0.2 ± 0.074
TAAATTTCTATTGC | -0.55 ± 0.13 | 2.4 ± 0.28
TAAATTGATATTGC A39T | -0.236 ± 0.061 | -0.533 ± 0.43
ATTTAACTATAACG A41T | -0.673 ± 0.15 | 2.347 ± 0.0099

Variant | relative integration efficiency (log2) [1] | relative integration efficiency (log2) [2]
TAAAGTGATATTTA C59A | -0.094 ± 0.095 | -0.17 ± 0.3
ATTTAACTATAACG T6G | -6.3 ± 0.14 | -5.38 ± 0.28
ATTTAACTATAACG T6A | -6.98 ± 0.9 | -4.12 ± 0.43
TAAATTGATGTTGC | -0.0405 ± 0.033 | 0.475 ± 0.053
TAAATTGATATTGC C37A | -0.531 ± 0.059 | -1.21 ± 0.23
TAAATTGATATTGC C37G | -0.123 ± 0.11 | -0.169 ± 0.072
TAAATTGATATTGC C59A | 0.048 ± 0.078 | -0.0286 ± 0.31
TAAATTGATATTGC C59T | -0.0651 ± 0.0017 | 0.538 ± 0.076
TAAATTGATATTGC T20A | -0.299 ± 0.1 | -0.359 ± 0.083
TAAATTGATATTGC A62G | -0.0391 ± 0.14 | 0.97 ± 0.12
TAAATTGATATTGC A62T | -0.435 ± 0.12 | 1.36 ± 0.086
ATTTAACTATAACG G46A | -1.36 ± 0.26 | 2.007 ± 0.0045
TAAATTGATATTGC A27G | -0.495 ± 0.11 | -0.445 ± 0.25
TAAATTGATATTGC A27C | -0.753 ± 0.18 | -0.281 ± 0.16
TAAATTGCGCGTGC | -0.618 ± 0.12 | 1.7 ± 0.1
TAAATTGATATTGC T9G | 0.104 ± 0.038 | 0.0503 ± 0.46
TAATAACATATTGC | -0.969 ± 0.16 | 2.203 ± 0.0027
TAAAGGGATATTGC | -0.254 ± 0.0064 | 1.63 ± 0.069
